Here are results for four molecules from article PMC6497721, “DNA methylation repels targeting of Arabidopsis REF6”.

For one data set, the target named is T1, REF6 ZnF1-4 (Arabidopsis thaliana, UniProt Q9STM3 1239-1360).
T1 sequence: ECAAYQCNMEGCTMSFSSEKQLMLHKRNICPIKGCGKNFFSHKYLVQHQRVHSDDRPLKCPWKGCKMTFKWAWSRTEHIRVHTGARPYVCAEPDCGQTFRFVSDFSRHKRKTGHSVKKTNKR
Description: ITC; 20 uM ZnCl2; ITC: 20 mM Tris-HCl pH 7.5, 150 mM NaCl, 20 uM ZnCl2, 25 C; EMSA: 25 mM Tris-HCl pH 8.0, 100 mM NaCl, 2.5 mM MgCl2, 0.1% CA-630, 10% glycerol, 1 uM ZnSO4, 1 mM. The conditions noted are these: protein: recombinant; tags: GST removed by PreScission; blunt. On the technique in general: Isothermal titration calorimetry measures the heat released or taken up as one component is titrated into another.

The next data set addresses T2, GST-REF6C (ZnF1-4) (Arabidopsis thaliana, UniProt Q9STM3 1239-1360).
T2 sequence: T1 sequence
Description: EMSA; 1 uM ZnSO4; ITC: 20 mM Tris-HCl pH 7.5, 150 mM NaCl, 20 uM ZnCl2, 25 C; EMSA: 25 mM Tris-HCl pH 8.0, 100 mM NaCl, 2.5 mM MgCl2, 0.1% CA-630, 10% glycerol, 1 uM ZnSO4, 1 mM. The conditions noted are these: protein: recombinant; tags: N-terminal GST (pGEX-6P-1); label: 5'-32P; blunt. (In general: A gel shift assay detects complexes by their altered migration in electrophoresis.)

B1: NAC004P_5mC1 (dsDNA)
DNA 1: TTCTCTGTTTTG
DNA 2: CAAAACAGAGAA
modifications: 5mC at top strand position 3
Turning to B1, the Kd in the data set with REF6 ZnF1-4 came to 65.7 ± 4.9 nM.

B2: NAC004 50-bp probe (dsDNA)
DNA 1: GGGAGAATCTCAAACTTTCTCTGTTTTGTCTTTAGAAACTTTGAAATATC
DNA 2: GATATTTCAAAGTTTCTAAAGACAAAACAGAGAAAGTTTGAGATTCTCCC
Regarding B2, the binding result in the data set with GST-REF6C (ZnF1-4) is “binds”.

B3: NAC004P_5mC3 (dsDNA)
DNA 1: TTCTCTGTTTTG
DNA 2: CAAAACAGAGAA
modifications: 5mC at top strand position 5
For B3, the Kd with REF6 ZnF1-4 was 110 ± 3.8 nM.

B4: NAC004P 12-mer (dsDNA)
DNA 1: TTCTCTGTTTTG
DNA 2: CAAAACAGAGAA
For the molecule B4, the dissociation constant Kd in the data set with REF6 ZnF1-4 was determined as 73.5 ± 7 nM.

In general, Kd refers to the concentration at which binding is half-saturated.
